How the values were obtained:
[1] = biological target: His-tagged recombinant human EGFR extracellular domain (Homo sapiens) (UniProt P00533); experiment: high-speed atomic force microscopy
[2] = biological target: Recombinant human MET extracellular domain (Homo sapiens) (UniProt P08581); experiment: high-speed atomic force microscopy

In the case of Amivantamab (bispecific antibody), the percent of the observation period with both EGFR and MET bound to amivantamab [1] is reported as 78%, the percent of the observation period bound [2] is reported as 87% and the percent of the observation period with both EGFR and MET bound to amivantamab [2] is reported as 78%.

From PMC12775570
